Key:
Assay in all cases: EMSA
Conditions in all cases: EMSA: 0.25 pmol 3'-biotin DNA, 25°C 2 h, LightShift Chemiluminescent EMSA kit buffer (composition and pH not stated), 6% DNA retardation gel, 0.5x TBE
[1] = target: T1, XisF5 (Pseudomonas aeruginosa PA14) (UniProt A0A0H2Z817)
T1 sequence: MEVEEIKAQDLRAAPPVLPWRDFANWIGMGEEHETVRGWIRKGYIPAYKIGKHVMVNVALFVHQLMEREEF

[2] = system: T2, XisF4 (Pseudomonas aeruginosa PAO1), ORF:74e9b1d3
T2 sequence: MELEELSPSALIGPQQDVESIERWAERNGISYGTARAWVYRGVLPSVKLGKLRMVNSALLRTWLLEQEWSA

[3] = system: T3, Pf4r (Pseudomonas aeruginosa PAO1), ORF:4ff4b857
T3 sequence: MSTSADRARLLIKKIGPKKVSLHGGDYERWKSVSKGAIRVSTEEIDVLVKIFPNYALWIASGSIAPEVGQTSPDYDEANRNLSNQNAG

Sequence | binding [1] | binding [2] | binding [3]
CATTTGTCGCCGGAGTACCTGCGGGACGCTATTCGACTCAACCCGCTGGCGGATTTCGACAGTTCTTCGACACTTGTCGAGACGTCCTAGATTTTTCCTTTGCATATCAATAAGTTATGAGCGCTGATTCGGCTTTGCCGA (double strand) [Pf5 attL] | binds | – | –
CGCGGTAAAGCCTGAAAACAGAAAGCCCCTGGCACTGGTTGGTGTCAGGGGCTTTTGCATTGGGATCTGGAGCGGGCGAAGGGAATCGAACCCTCGTCATGAGCTTGGGAAGCTCAGGTAATGCCATTATACGACGCCCGCTCGGACGGCTTTTGCGGCCAGGGCGCCTTTTTACCAGATGCGCGGC (double strand) [Pf4 attB] | – | no binding | –
TCGATTGGGAATTCCTCGCCCCGGTGGCGATGGGCTGGGCGCTGCATCACTGGTGGACGGTGATGACGGCGCTAGCGGCGGTAGGGGTGCCGCCATGAGGGGCGGGCCGCGCCGCCGGCCGGGAGCGCAAGGCATGAGCGATAGGCCGAAGGCGCGGCCGACGCCCCTGTAACACGTCAGATAAGCCACCTATTGCGGTTTCAATTCGTACCAATTTGGATCGTTAAAG (double strand) [P4 (PA0727 promoter)] | – | binds | –
TGCGCTCCGCCCACCGTTCGATGGACTCCACATCCTGTTGCGGCCCTATCAGGGCACTGGGGCTAAGCTCTTCCAGTTCCATGCTCATTCCGTCACTATTCGTGGCATTAGCCATACGCAGCTAGAGAAATAATTACCCTGGAGAAATTATTTCCCCAAAGCCACGTCAGGGCAACTATTTCCCCGGAATAAATTTCTATATGAGCACGTCAGCCGATAGAGCAAGACTATT (double strand) [P1 (xisF4-pf4r intergenic region)] | – | binds | binds
TTCGCCGGGGTGATCGACACCAGCGCGGTGGAATCGGCGATCACCGATGGCCAGGGCGATATGAAGGCCATTGGCGGCTACATCGTCGGCGCCCTGGTGATCCTGGCCGTTGCCGGCCTGATCTACAGCATGTTGCGCAAGGCGTAACGGGTGCTCTGGTCGGTGTGGTTGGGGGCGTTCTTCGCCGGCGCCTTCATCACCGGGTACCGGACCGGCGAATTCTTCTAACCGAACAGACCGAGGCGGAAGCCCCCTCCGGAGTTTCCGGCAGGGGGCTTTTTTGTGTGGGGTCTTACG (double strand) [P3 (PA0724 promoter)] | – | no binding | –
